Experimental data taken from patent US20180244777A1 (NUMAB THERAPEUTICS, published 2018).

Target: human CD3ε expressed on the cell surface of T cells (Jurkat cells; human CD8+ T cells) (human, UniProt P07766 23-207)
Assay: cell-based or functional assay

B1: anti-IL5R×CD3ε scDb containing Numab's anti-CD3 domain (humanized clone 6), Example 9 (bispecific antibody)
chain: DIQMTQSPSSLSASVGDRVTITCQASQNIYSNLAWYQQKPGKAPKLLIYRASTLASGVPSRFSGSGSGTDFTLTISSLQPEDFATYYCQSNYGINYYGAAFGQGTKLTVLGGGGGSEVQLVESGGGLVQPGGSLRLSCAASGFPLSSYAMIWVRQAPGKGLEWIGMILRAGNIYYASWVKGRFTISRDNSKNTVYLQMNSLRAEDTAVYYCARRHYNREGYPIGIGDLWGQGTLVTVSSGGGGSGGGGSGGGGSGGGGSDIQMTQSPSSLSASVGDRVTITCQSSESVYNNKRLSWYQQKPGKAPKLLIYTASSLASGVPSRFSGSGSGTDFTLTISSLQPEDFATYYCQGEFTCSNADCFTFGQGTKLTVLGGGGGSEVQLVESGGGLVQPGGSLRLSCAASGFSLSSYDMTWVRQAPGKGLEWIGIIYVSGSAYYASWAKGRFTISRDNSKNTVYLQMNSLRAEDTAVYYCARINYGLDLWGQGTLVTVSS
Question: With B1 as the binder, how does the “EC50 in the dose-response curve of specific lysis of CHO-IL5R target cells at 64 hours” value read?
Answer: 0.31 nM
